Results published in PMC101403.

How the values were obtained:
Assay in all cases: purified protein
Conditions in all cases: Mg2+ ([…] MgCl2)
purified protein [1] = substrate: CC(C)(COP(=O)(O)OP(=O)(O)OC[C@H]1O[C@@H](n2cnc3c(N)ncnc32)[C@H](O)[C@@H]1OP(=O)(O)O)[C@@H](O)C(=O)NCCC(=O)NCCS
purified protein [2] = substrate: CC(O)(CC(=O)O)CC(=O)SCCNC(=O)CCNC(=O)[C@H](O)C(C)(C)COP(=O)(O)OP(=O)(O)OC[C@H]1O[C@@H](n2cnc3c(N)ncnc32)[C@H](O)[C@@H]1OP(=O)(O)O
purified protein [3] = substrate: CC(=O)SCCNC(=O)CCNC(=O)[C@H](O)C(C)(C)COP(=O)(O)OP(=O)(O)OC[C@H]1O[C@@H](n2cnc3c(N)ncnc32)[C@H](O)[C@@H]1OP(=O)(O)O
purified protein [4] = substrate: CC(C)(COP(=O)(O)OP(=O)(O)OC[C@H]1O[C@@H](n2cnc3c(N)ncnc32)[C@H](O)[C@@H]1OP(=O)(O)O)[C@@H](O)C(=O)NCCC(=O)NCCSC(=O)CCC(=O)O

B1: Y87G2A.14 Nudix hydrolase (coenzyme A diphosphatase) (Caenorhabditis elegans) (protein)
chain: MKCVVSRADDLKRMLDLSDVPTKSQGEQDAGVLILLHDDGSEKLKVLLCVRSRQLRRHPGEVCFPGGMMDDEDGQNVRRTAIREAYEEVGVNENDDYLVLGNLPAFRARFGVLIHPTVALLRRPPTFVLSIGEVESIFWIPLSQFLEDTHHSTFLIDEFYMVHVFQFDEYPTTYGVTALMCIVVAIGLLGKLPNFNLMGNLTISDMLDKHLDSIEIIRHVYEFASRKFEPKSKI
Purified protein [1]
  Km: 220 µM
  kcat: 13.8 s⁻¹
  kcat/Km: 64000 M⁻¹ s⁻¹
Purified protein [2]
  Km: 200 µM
  kcat: 10.5 s⁻¹
  kcat/Km: 54000 M⁻¹ s⁻¹
Purified protein [3]
  Km: 230 µM
  kcat: 11.8 s⁻¹
  kcat/Km: 51000 M⁻¹ s⁻¹
Purified protein [4]
  Km: 240 µM
  kcat: 12.7 s⁻¹
  kcat/Km: 53000 M⁻¹ s⁻¹
